Where a chain is given by its changes, count along the chain named. Where two headings read alike, the source gives them in different places.
Assays:
[1] = Ratios of kinetic constants and enzyme efficiencies, methylation 1 / methylation 2; assay type: biochemical, S. pristinaespiralis; conditions: for Ratio Km2/Km1 / Ratio Vm1/Vm2: Table 5; for Vm1 · Km2 / Vm2 · Km1 (ratio of enzyme efficiencies): Table 7
Method: (§1) The conditions for assaying the methylation activity are identical to those described in example 7-1, with the exception of the 2 mM concentration of SAM, the methyl group of which is radioactively labeled with the carbon 14 isotope (2 Ci/mol). Concentration ranges varying from 0.1 to 60 mM for each of the substrates 4-amino-L-phenylalanine for methylation 1 and 4-methylamino-L-phenylalanine for methylation 2 are prepared. For each concentration of each substrate, the reaction rate is measured and expressed in nmol converted per hour and per mg of proteins.
(§2) The values of the kinetics constants are deduced from the Michaelis-Menten curves plotted using the Enzfiter software.
For each mutant form of the enzyme, the enzyme efficiency of each methylation reaction (methylation 1 and methylation 2) was determined. This efficiency is defined by the ratio Vm1/Km1 (methylation 1) or Vm2/Km2 (methylation 2).
Then, for each form, the ratio of the enzyme efficiencies (methylation reaction 1/methylation reaction 2) was determined. This ratio is equal to Vm1.Km2/Vm2.Km1.

[2] = Km and Vmax of purified PapM methylases, methylation 1; assay type: biochemical, S. pristinaespiralis; conditions: for Km1 / Vm1 / Vm1/Km1 (enzyme efficiency, methylation 1): Table 7; for Vm1 (PAPA) / Km1 (PAPA): purified enzyme, 2 mM SAM; for Km1 (PAPA): substrate 0.1 to 60 mM
Method: (§3) The enzyme fractions to be assayed (1 to 20 units) are incubated for 30 min at 27° C. in a total volume of 200 μl of 50 mM bis-tris-propane buffer, pH 6.8, containing SAM (200 μM) the methyl group of which is radioactively labeled with the carbon 14 isotope (2 Ci/mol), in the presence of 4-amino-L-phenylalanine (1 mM) for assaying methylation 1, or of 4-methylamino-L-alanine (2.5 mM) for assaying methylation 2.
(§4) The reaction is stopped by adding 16 μl of 37% hydrochloric acid and then 20 μl of sodium heptanesulfonate at 240 g/l. After centrifugation, 150 μl of supernatant are injected into the HPLC system in the following gradient mode: • Mobile phase: Eluent A=1.2 g of heptanesulfonate+2.5 ml of glacial acetic acid+water (qs 1 000 ml). Eluent B=1.2 g of sodium heptanesulfonate+2.5 ml of glacial acetic acid+300 ml of acetonitrile+water (qs 1 000 ml). The gradient is produced in the following way: at t=0, 30% of eluent B; t=16 (min), 30% of eluent B; t=17 (min), 100% of eluent B; t=20 min, 100% of eluent B; t=21 min, 30% of eluent B; t=25 (min), 30% of eluent B. • Stationary phase: Nucleosil® C 18 5 μm×4.6 mm column (Macherey-Nagel)
(§5) On leaving the column, the substrates and products of the enzyme reaction are quantified by absorption at 254 nm. This detection is coupled to an on-line radiochemical detection using a Berthold LB506 detector equipped with a solid scintillation cell of the GT400-U4 type. This makes it possible to specifically follow the incorporation of radioactive methyl groups into the reaction products.
(§6) The unit of enzyme activity for methylation 1 (and also for methylation 2) is defined as the amount of enzyme required to incorporate 1 nmol of methyl group into 4-amino-L-phenylalanine (or into 4-methylamino-L-phenylalanine).
as §1, §2

[3] = Km and Vmax of purified PapM methylases, methylation 2; assay type: biochemical, S. pristinaespiralis; conditions: for Km2 / Vm2 / Vm2/Km2 (enzyme efficiency, methylation 2): Table 7; for Vm2 (MMPAPA) / Km2 (MMPAPA): purified enzyme, 2 mM SAM; for Km2 (MMPAPA): substrate 0.1 to 60 mM
Method: as §3, §4, §5, §6, §1, §2

[4] = Blanc et al., 1997, cited from earlier work
[5] = Competition assay between the two substrates; assay type: biochemical, S. pristinaespiralis; conditions: both substrates present: 1 mM 4-amino-L-phenylalanine, 2 mM 4-methylamino-L-phenylalanine, 2 mM SAM
Method: The ratio of the rates of conversion of the two competitive substrates is given by the formula: V1/V2=(Kcat1/Km1)[S1]/(Kcat2/Km2)[S2]
The amount of substrate and of enzyme brought into play is thus avoided by taking care not to convert not more than 2% of each of the substrates.
Using the same conditions for assaying the methylation activity as those described in example 7-1, with the exception of the concentration of SAM, which is 2 mM, and the methyl group of which is radioactively labeled with the carbon 14 isotope (2.5 Ci/mol), and with the simultaneous presence of the two substrates at the concentrations, for 4-amino-L-phenylalanine, of 1 mM and, for 4-methylamino-L-phenylalanine, of 2 mM, the rate of each of the reactions could thus be determined.
The assays were carried out simultaneously on the mutants described in examples 4 to 6, using the same substrate solutions.

[6] = Enzymatic screening: simultaneous assay of the two methylation activities of PapM (ratio r); assay type: biochemical, S. pristinaespiralis; conditions: for Ratio (r redetermined): 7 sequenced clones, experiment in which wild-type ratio was 0.40
Description: The ratio of the respective rates V1 and V2 of methylation of L-PAPA and of L-MMPAPA is dependent on the kinetic parameters of PapM (Km1 and Vmax1 for L-PAPA, Km2 and Vmax2 for L-MMPAPA), and is also dependent on the respective concentrations S1 and S2 of L-PAPA and of L-MMPAPA, according to the formula: V1/V2=(Vmax1//Km1)[S1]/(Vmax2/Km2)[S2]
Simultaneous measurement of the two rates of methylation V1 and V2 at fixed concentrations of S1 and S2 makes it possible to determine the ratio of the kinetic constants of PapM for L-PAPA and L-MMPAPA. This ratio is independent of the amount of PapM used in the assay. When the selectivity of the mutated PapM enzyme increases for L-PAPA, the ratio V1/V2 should increase and, conversely, this ratio should decrease when the mutated PapM enzyme preferentially methylates L-MMPAPA.
Finally, in order to avoid small variations in Km and to, on the contrary, promote either large variations in Km or modifications in the Vmax values, the concentrations of L-PAPA and L-MMPAPA are fixed at approximately 6 times the Km in order to be under conditions of saturation. Under such conditions, with the wild-type PapM enzyme, the rate of methylation 1 and the rate of methylation 2 are virtually equal.
The simultaneous assaying of the two methylation activities of PapM is described in example 7.1. This assaying of the methylase activities of PapM is carried out in the presence of 1.5 mM L-PAPA, 3 mM L-MMPAPA and […].
The 96-well plates of the library of E. coli clones producing the mutated PapM enzymes, prepared as described in example 3, are thawed at 23° C. Next, 25 μl of mixture A are added to the 200 μl of the culture on LB medium contained in each well. Mixture A is obtained by adding successively (1) 3 ml of 50 mM Bis-Tris-Propane buffer, pH 10, in which have been dissolved 12 mg of L-PAPA, and 71 mg of (DL)-MMPAPA in dihydrochloride form and prepared as described in WO 96/01901-A1, (2) 0.7 ml of 4 mM SAM in water, (3) 0.7 ml of [^14C-Me]-SAM at 25 μCi/ml and 60 mCi/mmol (AMERSHAM), (4) 0.6 ml of 100 mM Bis-Tris-Propane buffer, pH 6.8, and (5) 56 mg of the disodium salt of EDTA. The amounts are given for the preparation of a 5 ml volume of mixture A. The plate is then sealed with an adhesive film, and then incubated at 27° C. for 2 hours. The reaction is stopped with 40 μl of a stop solution. The stop solution (for a volume of 4 ml) is obtained by mixing 2.2 ml of a 24 mg/ml sodium heptanesulfonate solution in water with 1.8 ml of concentrated hydrochloric acid. After centrifugation of the plates at 3 000 g for 5 min, approximately 100 μl of the supernatant of each well are analyzed by HPLC in the system described in example 7.1.
For each well, the respective areas A1 and A2 of the MMPAPA and DMPAPA peaks derived from recording the radiochemical detection are integrated. A ratio r is then calculated in the following way: r=A1/(A1+A2) In the case of the wild-type PapM methylase, r=0.50±0.05.

[7] = Blanc et al., 1997, cited from earlier work; remark: listed apart in the source

B1: 4-amino-L-phenylalanine (phenyl N)-methyltransferase (protein, UniProt P72542 1-292, looked up)
4-amino-L-phenylalanine/4-meth …: MTAAAPTLAQALDEATGQLTGAGITADAARADTRLLAAHACQVAPGDLDTCLAGPVPPRFWHYVRRRLTREPAERIVGHAYFMGHRFDLAPGVFVPKPETEEITRDAIARLEALVRRGTTAPLVVDLCAGPGTMAVTLARHVPAARVLGIELSQAAARAARRNARGTGARIVQGDARDAFPELSGTVDLVVTNPPYIPIGLRTSAPEVLEHDPPLALWAGEEGLGMIRAMERTAARLLAPGGVLLLEHGSYQLASVPALFRATGRWSHASSRPTCNDGCLTAVRNHTCAPPA
[1]
  ratio of the enzyme efficiencies (methylation reaction 1/methylation reaction 2), Vm1.Km2/Vm2.Km1: 1.1
  Ratio Km2/Km1: 1.1
  Ratio Vm1/Vm2: 0.99
  Vm1 · Km2 / Vm2 · Km1 (ratio of enzyme efficiencies): 1.08
[2]
  Km1: 0.5
  Vm1: 112 600
  Vm1/Km1 (enzyme efficiency, methylation 1): 225 200
  Vm1 (PAPA): 112 600 nmol/h/mg
  Km1 (PAPA): 0.5 mM
[3]
  Km2: 0.55
  Vm2: 114 000
  Vm2/Km2 (enzyme efficiency, methylation 2): 207 270
  Vm2 (MMPAPA): 114 000 nmol/h/mg
  Km2 (MMPAPA): 0.55 mM
[4]
  maximum velocity (Vmax) for L-MMPAPA: 71 μmol per hour and per mg of PapM
[4]; read-out: Michaelis constant (Km) for L-MMPAPA
  Km: 530 µM
[5]
  first methylation reaction relative to the second (selectivity): catalyzes the two reactions in a similar manner
[6]
  Ratio (r redetermined): 0.40
[6]; after recloning of papM genes into pMTL23, E. coli DH5α, same experiment as wild-type
  ratio of the two methylation activities (r): 0.40
[6]; screening of E. coli cultures, 1.5 mM L-PAPA, 3 mM L-MMPAPA
  ratio r=A1/(A1+A2) of MMPAPA and DMPAPA peak areas: 0.50±0.05
[7]
  maximum velocity (Vmax) for L-PAPA: 55 μmol per hour and per mg of PapM
[7]; read-out: Michaelis constant (Km) for L-PAPA
  Km: 240 µM

B2: Mutant 49/66: doubly mutated PapM, Thr192 > Ile and Gly249 > Ser, plasmids pVRC718 / pVRC721 (protein, UniProt P72542 1-292, looked up, variant T192I G249S)
4-amino-L-phenylalanine/4-meth …: B1 4-amino-L-phenylalanine/4-meth … with T192I, G249S
[1]
  Ratio Km2/Km1: 2.5
  Ratio Vm1/Vm2: 3.1
  Vm1 · Km2 / Vm2 · Km1 (ratio of enzyme efficiencies): 7.58
[2]
  Km1: 9
  Vm1: 28 000
  Vm1/Km1 (enzyme efficiency, methylation 1): 3 110
  Vm1 (PAPA): 28 000 nmol/h/mg
  Km1 (PAPA): 9 mM
[3]
  Km2: 22
  Vm2: 9 100
  Vm2/Km2 (enzyme efficiency, methylation 2): 410
  Vm2 (MMPAPA): 9 100 nmol/h/mg
  Km2 (MMPAPA): 22 mM
[5]
  first methylation reaction relative to the second (selectivity): 7 times

B3: Mutant 45: PapM variant Thr274 > Ile (protein, UniProt P72542 1-292, looked up, variant T274I)
4-amino-L-phenylalanine/4-meth …: B1 4-amino-L-phenylalanine/4-meth … with T274I
[6]
  Ratio (r redetermined): 0.52

B4: Mutant 52: PapM variant Gly249 > Asp (protein, UniProt P72542 1-292, looked up, variant G249D)
4-amino-L-phenylalanine/4-meth …: B1 4-amino-L-phenylalanine/4-meth … with G249D
[6]
  Ratio (r redetermined): 0.66

B5: Mutant 69: PapM variant Met226 > Ile (protein, UniProt P72542 1-292, looked up, variant M226I)
4-amino-L-phenylalanine/4-meth …: B1 4-amino-L-phenylalanine/4-meth … with M226I
[6]
  Ratio (r redetermined): 0.51

B6: Mutant 74D4: PapM variant clone, Gly249 > Ser (same substitution as mutant 49) (protein, UniProt P72542 1-292, looked up, variant G249S)
4-amino-L-phenylalanine/4-meth …: B1 4-amino-L-phenylalanine/4-meth … with G249S
[6]
  Ratio (r redetermined): 0.63

B7: Mutant 74D5: PapM variant clone, Met226 > Ile (same substitution as mutant 69) (protein, UniProt P72542 1-292, looked up, variant M226I)
4-amino-L-phenylalanine/4-meth …: B1 4-amino-L-phenylalanine/4-meth … with M226I
[6]
  Ratio (r redetermined): 0.52
